Measured values as given in paper PMC12137749 (Nature Communications, 2025).
Like-named read-outs stand apart in the source and are kept apart here.

What was measured:
[1] = target: the molecule itself
[2] = target: the molecule itself; experiment: cryo-EM structure

B1: full-length MPXV E5 (mpox virus helicase-primase E5), wild type (enzyme)
chain: MDAAIRGNDVIFVLKTIGVPSACRQNEDPRFVEAFKCDELERYIDNNPECTLFESLRDEEAYSIVRIFMDVDLDACLDEIDYLTAIQDFIIEVSNCVARFAFTECGAIHENVIKSMRSNFSLTKSTNRDKTSFHIIFLDTYTTMDTLIAMKRTLLELSRSSENPLTRSIDTAVYRRKTTLRVVGTRKNPNCDTIHVMQPPHDNIEDYLFTYVDMNNNSYYFSLQRRLEDLVPDKLWEPGFISFEDAIKRVSKIFINSIINFNDLDENNFTTVPLVIDYVTPCALCKKRSHKHPHQLSLENGAIRIYKTGNPHSCKVKIVPLDGNKLFNIAQRILDTNSVLLTERGDHIVWINNSWKFNSEEPLITKLILSIRHQLPKEYSSELLCPRKRKTVEANIRDMLVDSVETDTYPDKLPFKNGVLDLVDGMFYSGDDAKKYTCTVSTGFKFDDTKFVEDSPEMEELMNIINDIQPLTDENKKNRELYEKTLSSCLCGATKGCLTFFFGETATGKSTTKRLLKSAIGDLFVETGQTILTDVLDKGPNPFIANMHLKRSVFCSELPDFACSGSKKIRSDNIKKLTEPCVIGRPCFSNKINNRNHATIIIDTNYKPVFDRIDNALMRRIAVVRFRTHFSQPSGREAAENNDAYDKVKLLDEGLDGKIQNNRYRFAFLYLLVKWYKKYHIPIMKLYPTPEEIPDFAFYLKIGTLLVSSSVKHIPLMTDLSKKGYILYDNVVTLPLTTFQQKISKYFNSRLFGHDIESFINRHKKFANVSDEYLQYIFIEDISSP
stoichiometry N [1]: 6 | stoichiometry N [2]: 12
